The supplement of paper PMC12667976

B1: library; numbered along this chain (parent)
chain: MATDAALRRLLRLHRTEIAVAVDSAFPLLHALADHDVVPEDKFQETLHLKEKEGCPQAFHALLSWLLTQDSTAILDFWRVLFKDYNLERYGRLQPILDSFPKDVDLSQPRKGRKPPAVPKALVPPPRLPTKRKASEEARAAAPAALTPRGTASPGSQLKAKPPKKPESSAEQQRLPLGNGIQTMSASVQRAVAMSSGDVPGARGAVEGILIQQVFESGGSKKCIQVGGEFYTPSKFEDSGSGKNKARSSSGPKPLVRAKGAQGAAPGGGEARLGQQGSVPAPLALPSDPQLHQKNEDECAVCRDGGELICCDGCPRAFHLACLSPPLREIPSGTWRCSSCLQATVQEVQPRAEEPRPQEPPVETPLPPGLRSAGEEVRGPPGEPLAGMDTTLVYKHLPAPPSAAPLPGLDSSALHPLLCVGPEGQQNLAPGARCGVCGDGTDVLRCTHCAAAFHWRCHFPAGTSRPGTGLRCRSCSGDVTPAPVEGVLAPSPARLAPGPAKDDTASHEPALHRDDLESLLSEHTFDGILQWAIQSMARPAAPFPS

Variants of: B1
Test: AIRE transcriptional activation functional score (insulin promoter-GFP; nonsense median 0, synonymous median 1) (normalised score); higher = higher AIRE activity (more reporter activation)
Conditions: with insulin promoter-GFP reporter in HEK293
Method in brief: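 Using Bxb1 recombinase, codon-optimized NNN-codon libraries for three AIRE regions were inserted into Flp-In T-REx HEK293 landing-pad cells with an insulin core promoter-GFP reporter. After integrants (mCherry+, BFP−) were sorted at day 7 and expanded for 7 days, the top 10% GFP and unselected integrant populations underwent tile-sequencing. Functional scores are wild-type-subtracted enrichments of variants in select over non-select samples. A cutoff of 10 counts per million in non-select applied, and values were rescaled (nonsense median 0, synonymous median 1) and averaged over biological replicates.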

AIRE transcriptional activation functional score: each site, then its substitutions
A510: Y 0.861 | P 1.35 | C 1.24 | H 0.605 | M 1.37 | L 1.04 | T 0.933 | K 0.165 | W 0.663 | S 0.921 | V 1.09 | F 0.578 | G 0.977 | E 1.33 | I -0.237 | Q 0.851 | R 0.323
D514: T 0.26 | C 0.246 | V 0.335 | P -0.178 | H 0.52 | M 0.515 | E 0.931 | G 0.3 | K -0.0487 | Q -0.128 | S 0.341 | R 0.191 | Y 0.351 | A 0.214 | I -0.186 | N 0.242 | W -0.252 | F 0.299 | L 0.0834
R513: K 0.902 | M 1.01 | I 1.44 | N 0.0982 | T 1.17 | S 0.587 | V 0.873 | D 0.928 | W 0.733 | Y 1.28 | F 1.18 | L 0.882 | H 0.0273 | P 0.55 | G -0.188 | E -0.344 | C 0.777
H512: F 1.21 | K 0.572 | D 0.939 | T 0.649 | Q 0.273 | R 0.445 | L 0.941 | G 0.716 | V 1.35 | C -0.3 | N 1.02 | W 1.06 | S 0.923 | I 1.1 | P 1.09 | A 0.977 | M 0.439 | Y 0.777
E508: Q 1.03 | S 0.0376 | V 0.577 | Y 0.92 | T 0.822 | W 0.888 | P 0.813 | R 0.154
P509: Q 1.12 | H 0.506 | G 1.11 | M 1.65 | K 0.522 | L 0.827 | E 1.16 | Y 1.11 | T 0.871 | A 0.736 | C 0.247 | N 0.827 | S 1.16 | I 1.21 | R 0.805 | F 1.17 | W 0.591 | V 1.14
S518: A 0.775 | F 1.2 | C 0.672 | G 0.666 | H 0.981
L516: Q 0.292 | I 0.97 | G 0.562 | Y 1.01 | S 0.564 | F 1.48 | C 0.678 | D 0.758 | V 0.832 | R 0.262 | N 0.207 | E -0.232 | K 0.259 | P 0.365 | T 0.362 | W 0.496 | A 0.556 | H 0.715
D515: P 0.67 | N 0.626 | L -0.215 | H 0.453 | T 0.0981 | G 0.421 | Y 0.405 | W -0.15 | C 0.503 | Q 0.723 | K -0.501 | I 0.101 | M -0.0216 | F 0.156 | R -0.0862 | A -0.0405 | V 0.106 | S 0.474 | E 1.18
L511: T 0.121 | R 0.813 | M 0.699 | G 0.805 | I 0.739 | S 0.682 | K -0.311 | Y 1.19 | C 0.201 | W 1.02 | F 0.864 | V 0.838 | P 0.736 | A 0.757 | Q 0.142 | H 0.98
E517: V 0.207 | L 0.0571 | R 0.985 | A -0.0659 | K -0.0484 | D 1.25 | H 0.164 | G 0.693 | S -0.144 | Q 0.0484 | I 0.0464 | Y 0.524
